Laboratory results: publication PMC8449271 (The Journal of Biological Chemistry, 2021)

Target: the molecule itself
Test: mass photometry

| Protein | stoichiometry N |
| --- | --- |
| Cryptococcus neoformans bifunctional GARs/AIRs (phosphoribosyl-glycinamide synthetase / phosphoribosyl-aminoimidazole synthetase), recombinant His-tagged (enzyme, UniProt J9VYP5 1-802, looked up) MPEITAFPQPKSDLSILLLGAGGREHALAFKLAQSSRVARIVVCPGNGGTALMGGKVSNLALPWGAPPAFRSIVEWAQKENIDLVVPGPEQPLVDGVEGAFKKVGIPVFGPSPAAAMLEGSKSLSKEFMARHNIPTAAFRSFTSTQYEDAVAYIKSKPFTSGRSVIKASGLAAGKGVLIPETDEEAFAALKSVMVDKEFGDAGDEVVVEEYLSGPEISVLAFSDGYTIVPMPAAQDHKRIGEGDTGLNTGGMGAYAPAPIATKEIMERCVKDVLEPTIKGMREDGYPFVGMLFTGFMITADGPRVLEYNVRFGDPETQALMLLLDEQTDLAEVLLACVERRLDSIKLGYKQGYAVSVVLASEGYPGSYPKGLPMTLNPTPEGVEVFHAGTKRSDNVTVTDGGRVLAVCASAPTLRAAVDLAYSGISQISFQGQTFRRDIAYRALSSEPPAEPKGLTYAAAGVSVDAGNDLVEAIKPVVKATRRPGADSDIGGFGGAFDLAKAGYKDPILVSGTDGVGTKLRVALDHGKHNTVGIDLVAMSVNDLIVQGAEPLYFLDYYACSKLDVPVAADVITGIAEGCLQAGCALIGGETAEMPGMYHGDDYDLAGFAVGVVERAQILPTPDIASGDVLLALSSSGPHSNGFSLIRKIVSLSNLSLHDTAPWDKNTSVGDALLTPTKVYIKPLLPGIKSGLYKGMSHITGGGFTENIPRIFSSASNLGVKLDLTSYSLPAIWKWLMRAGNVEAKEMVRTFNCGVGMIIIVAKDKADAALSSLKENGEEAWVIGEVQEKKGVEYVGLDKFGL | 2 |
| Cryptococcus neoformans GARs single enzymatic unit (phosphoribosyl-glycinamide synthetase), recombinant His-tagged (domain or fragment) MPEITAFPQPKSDLSILLLGAGGREHALAFKLAQSSRVARIVVCPGNGGTALMGGKVSNLALPWGAPPAFRSIVEWAQKENIDLVVPGPEQPLVDGVEGAFKKVGIPVFGPSPAAAMLEGSKSLSKEFMARHNIPTAAFRSFTSTQYEDAVAYIKSKPFTSGRSVIKASGLAAGKGVLIPETDEEAFAALKSVMVDKEFGDAGDEVVVEEYLSGPEISVLAFSDGYTIVPMPAAQDHKRIGEGDTGLNTGGMGAYAPAPIATKEIMERCVKDVLEPTIKGMREDGYPFVGMLFTGFMITADGPRVLEYNVRFGDPETQALMLLLDEQTDLAEVLLACVERRLDSIKLGYKQGYAVSVVLASEGYPGSYPKGLPMTLNPTPEGVEVFHAGTKRSDNVTVTDGGRVLAVCASAPTLRAAVDLAYSGISQISFQGQTFRRDIAYRALSSEPPAEP | 2 |
| Cryptococcus neoformans AIRs single enzymatic unit (phosphoribosyl-aminoimidazole synthetase), recombinant His-tagged (domain or fragment) GFGGAFDLAKAGYKDPILVSGTDGVGTKLRVALDHGKHNTVGIDLVAMSVNDLIVQGAEPLYFLDYYACSKLDVPVAADVITGIAEGCLQAGCALIGGETAEMPGMYHGDDYDLAGFAVGVVERAQILPTPDIASGDVLLALSSSGPHSNGFSLIRKIVSLSNLSLHDTAPWDKNTSVGDALLTPTKVYIKPLLPGIKSGLYKGMSHITGGGFTENIPRIFSSASNLGVKLDLTSYSLPAIWKWLMRAGNVEAKEMVRTFNCGVGMIIIVAKDKADAALSSLKENGEEAWVIGEVQEKKGVEYVGLDKFGL | 2 |
